# Article PMC10629212, “Active Site Loop Engineering Abolishes Water Capture in Hydroxylating Sesquiterpene Synthases” (ACS Catalysis, 2023)
# Numbering of substitutions follows the chain as printed. Names and notes keep the numbering of the source.
# B1: PTS (patchoulol synthase) (Pogostemon cablin; E461S/K458R/K459R/R460G) (protein)
# chain: MELYAQSVGVGAASRPLANFHPCVWGDKFIVYNPQSCQAGEREEAEELKVELKRELKEASDNYMRQLKMVDAIQRLGIDYLFVEDVDEALKNLFEMFDAFCKNNHDMHATALSFRLLRQHGYRVSCEVFEKFKDGKDGFKVPNEDGAVAVLEFFEATHLRVHGEDVLDNAFDFTRNYLESVYATLNDPTAKQVHNALNEFSFRRGLPRVEARKYISIYEQYASHHKGLLKLAKLDFNLVQALHRRELSEDSRWWKTLQVPTKLSFVRDRLVESYFWASGSYFEPNYSVARMILAKGLAVLSLMDDVYDAYGTFEELQMFTDAIERWDASCLDKLPDYMKIVYKALLDVFEEVDEELIKLGAPYRAYYGKEAMKYAARAYMEEAQWREQKHKPTTKEYMKLATKTCGYITLIILSCLGVEEGIVTKEAFDWVFSRPPFIEATLIIARLVNDITGHEFERRGSHVRTAVECYMEEHKVGKQEVVSEFYNQMESAWKDINEGFLRPVEFPIPLLYLILNSVRTLEVIYKEGDSYTHVGPAMQNIIKQLYLHPVPY
# notes: recombinant purified; construct details only in Supporting Information
# B2: Gd11olS (germacradiene-11-ol synthase) (Streptomyces coelicolor A3(2)) (protein)
# chain: MTQQPFQLPHFYLPHPARLNPHLDEARAHSTTWAREMGMLEGSGVWEQSDLEAHDYGLLCAYTHPDCDGPALSLITDWYVWVFFFDDHFLEKYKRSQDRLAGKAHLDRLPLFMPLDDAAGMPEPRNPVEAGLADLWTRTVPAMSADWRRRFAVATEHLLNESMWELSNINEGRVANPVEYIEMRRKVGGAPWSAGLVEYATAEVPAAVAGTRPLRVLMETFSDAVHLRNDLFSYQREVEDEGELSNGVLVLETFFGCTTQEAADLVNDVLTSRLHQFEHTAFTEVPAVALEKGLTPLEVAAVGAYTKGLQDWQSGGHEWHMRSSRYMNKGERPLAGWQ
# notes: likely N-terminal germacradienol synthase domain of the bifunctional geosmin synthase (as in PDB 5DZ2); recombinant purified
# B3: Gd11olS (germacradiene-11-ol synthase) (Streptomyces coelicolor A3(2); D240G/E239R/E241S/V238R) (protein)
# chain: B2 chain with V238R, E239R, D240G, E241S
# notes: as for B2
# B4: PTS (patchoulol synthase) (Pogostemon cablin) (protein)
# chain: B1 chain with R458K, R459K, G460R, S461E
# notes: as for B1
# B5: PTS (patchoulol synthase) (Pogostemon cablin; Y525F) (protein)
# chain: B1 chain with R458K, R459K, G460R, S461E, Y525F
# notes: as for B1
# B6: PTS (patchoulol synthase) (Pogostemon cablin; Y525A) (protein)
# chain: B1 chain with R458K, R459K, G460R, S461E, Y525A
# notes: as for B1
# B7: PTS (patchoulol synthase) (Pogostemon cablin; Y531F) (protein)
# chain: B1 chain with R458K, R459K, G460R, S461E, Y531F
# notes: as for B1
# B8: PTS (patchoulol synthase) (Pogostemon cablin; C405A) (protein)
# chain: B1 chain with C405A, R458K, R459K, G460R, S461E
# notes: as for B1
# Key:
# [1] = substrate: CC(C)=CCC/C(C)=C/CC/C(C)=C/CO[P@@](=O)(O)OP(=O)(O)O; assay: steady-state kinetics of sesquiterpene formation (details in Supporting Information); type: biochemical, Pogostemon cablin; conditions: Mg2+-dependent enzyme; conditions in Supporting Information
# Source text: steady-state kinetics of sesquiterpene formation (details in Supporting Information) on PTS (patchoulol synthase)
# [2] = substrate: CC(C)=CCC/C(C)=C/CC/C(C)=C/CO[P@@](=O)(O)OP(=O)(O)O; assay: as above; type: biochemical, Streptomyces coelicolor; conditions: Mg2+-dependent enzyme; conditions in Supporting Information
# Source text: steady-state kinetics of sesquiterpene formation (details in Supporting Information) on Gd11olS (germacradiene-11-ol synthase)
Protein,Km [1],Km [2]
B1,1.54 ± 0.16 µM,–
B2,–,0.45 ± 0.08 µM
B3,–,6.02 ± 1.25 µM
B4,0.68 ± 0.14 µM,–
B5,4.8 ± 1.26 µM,–
B6,5.27 ± 1.22 µM,–
B7,0.37 ± 0.09 µM,–
B8,0.67 ± 0.09 µM,–
